Measurements taken from patent US20230279059A1 (VIB VZW, published 2023).

T1: split-BC Ena1B, C-terminal part (strands CDEFGHI) (Bacillus cereus NVH 0075-95)
T1 construct: also called split BC construct, C-terminal half
T1 chain: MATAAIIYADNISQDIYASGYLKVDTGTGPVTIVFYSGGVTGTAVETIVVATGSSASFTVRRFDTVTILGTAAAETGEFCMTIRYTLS

B1: recEna1BΔNtc (deletion of residues 2-15 of WT Ena1B) (other)
chain: MKTIVQDKVCIDWTAAATAAIIYADNISQDIYASGYLKVDTGTGPVTIVFYSGGVTGTAVETIVVATGSSASFTVRRFDTVTILGTAAAETGEFCMTIRYTLS
B2: Bacillus cereus NVH 0075-95 Endospore appendage (Ena) 1A, wild type (other)
chain: MACECSSTVLTCCSDNSSNFVQDKVCNPWSSAEASTFTVYANNVNQNIVGTGYLTYDVGPGVSPANQITVTVLDSGGGTIQTFLVNEGTSISFTFRRFNIIQITTPATPIGTYQGEFCITTRYLMA
notes: also called KMP91697.1; WP_000742049.1
B3: recombinant Ena1B with N-terminal 6xHis tag and TEV cleavage site (other)
chain: MHHHHHHSSGENLYFQGNCSTNLSCCANGQKTIVQDKVCIDWTAAATAAIIYADNISQDIYASGYLKVDTGTGPVTIVFYSGGVTGTAVETIVVATGSSASFTVRRFDTVTILGTAAAETGEFCMTIRYTLS
B4: Ena1B-HI-HA insertion variant (other)
chain: MGNCSTNLSCCANGQKTIVQDKVCIDWTAAATAAIIYADNISQDIYASGYLKVDTGTGPVTIVFYSGGVTGTAVETIVVATGSSASFTVRRFDTVTILGGSYPYDVPDYAGSAAETGEFCMTIRYTLS
B5: split-BC Ena1B, N-terminal part (strands AB) (other)
chain: MGNCSTNLSCCANGQKTIVQDKVCIDWTAA
notes: also called split BC construct, N-terminal half
B6: Bacillus cereus NVH 0075-95 Endospore appendage (Ena) 1B, wild type (other)
chain: MGNCSTNLSCCANGQKTIVQDKVCIDWTAAATAAIIYADNISQDIYASGYLKVDTGTGPVTIVFYSGGVTGTAVETIVVATGSSASFTVRRFDTVTILGTAAAETGEFCMTIRYTLS
notes: also called WT Ena1B; WT recEna1B
B7: Ena1B-DE-Flag insertion variant (other)
chain: MGNCSTNLSCCANGQKTIVQDKVCIDWTAAATAAIIYADNISQDIYASGYLKVDTGSDYKDDDDKGSGPVTIVFYSGGVTGTAVETIVVATGSSASFTVRRFDTVTILGTAAAETGEFCMTIRYTLS
B8: Ena2C after removal of the 6×His-TEV blocker by TEV protease (other)
chain: MKNKKNIGCFAPLSIICPDPCPPPPPPNPNCERVTNEFAGNFLITNNTIPSAKDASQSMILWQSDGILLISGTVSVYNSTSSTETITIQIVGTVTNIFTVFPGNTISYTGKDLHSVSIINITSNPSLYLEGKYCCEFTCCL
notes: also called short L-like Ena2C filaments
B9: M-His6-SSG-Ena1B, steric block of 9 amino acids (other)
chain: MHHHHHHSSGGNCSTNLSCCANGQKTIVQDKVCIDWTAAATAAIIYADNISQDIYASGYLKVDTGTGPVTIVFYSGGVTGTAVETIVVATGSSASFTVRRFDTVTILGTAAAETGEFCMTIRYTLS
B10: M-TEV-Ena1B (M-[…]-Ena1B), steric block of 6 amino acids (other)
chain: MENLYFQGNCSTNLSCCANGQKTIVQDKVCIDWTAAATAAIIYADNISQDIYASGYLKVDTGTGPVTIVFYSGGVTGTAVETIVVATGSSASFTVRRFDTVTILGTAAAETGEFCMTIRYTLS
notes: also called M-TEV-Ena1B (N=6)
B11: recombinant Ena1C with N-terminal 6xHis tag and TEV cleavage site (other)
chain: MHHHHHHSSGENLYFQGKPHKNIGCFAPLSIICQPTCPCPPPILPPERGDAELVTNEFAGDILISNDFIPISQKQLKQTNTTVNIWKNDGIVSLSGTISIYNNRNSTNALSIQIISSTTNTFTALPGNTISYTGFDLQSVSVIDIPSDPSIYIEGRYCFQLTYCKSKRDCL
notes: also called recEna1C; WP_000802321
B12: recEna1B after removal of the N-terminal 6xHis tag by TEV protease (other)
chain: GNCSTNLSCCANGQKTIVQDKVCIDWTAAATAAIIYADNISQDIYASGYLKVDTGTGPVTIVFYSGGVTGTAVETIVVATGSSASFTVRRFDTVTILGTAAAETGEFCMTIRYTLS
notes: also called in vitro Ena1B fibers; recENA1B (PDB7A02)
B13: Ena2A after removal of the 6×His-TEV blocker by TEV protease (other)
chain: MSCECSGSALTCCPDKNYVQDKVCSPWSATVVATAIDNVLYTNNINQNVVGTGFVKYDVGPGPITVEALDSAGGTIDTQTLNPGTSIAFTYRRFDSIQVVLPATPAGTYQGEFCITTRYPLS
notes: also called in vitro assembled Ena2A filament
B14: Ena2A without steric block (other)
chain: B13 chain
notes: also called WP_001277540.1

Tests used:
[1] = target: the molecule itself; assay: expression in E. coli, ns-TEM
[2] = target: the molecule itself; assay: self-assembly of tag-free protein in the E. coli cytoplasm, negative stain TEM
[3] = target: B6; assay: immunogold TEM and cryoEM of ex vivo S-type Enas; both subunits within single fibers
[4] = target: the molecule itself; assay: self-assembly after refolding from 8M urea, negative stain TEM
[5] = target: the molecule itself; assay: expression in E. coli, nsTEM
[6] = target: T1, split-BC Ena1B, C-terminal part …; assay: co-expression of the two halves in E. coli, NS-TEM
[7] = target: the molecule itself; assay: in vitro self-assembly after TEV cleavage, cryo-EM
[8] = target: the molecule itself; assay: self-assembly after refolding by dialysis, EM
[9] = target: the molecule itself; assay: self-assembly after TEV cleavage of the His-tag, TEM
[10] = target: B3; assay: epitaxial growth on maleimide magnetic beads carrying 6×His_TEV_Ena1B multimers, nsTEM
[11] = target: the molecule itself; assay: in vitro self-assembly after TEV cleavage, NS-TEM and cryo-EM
[12] = target: the molecule itself; assay: self-assembly in the E. coli cytoplasm, NS-TEM

B1: binds [1].

B2: binds [2]; binds [3].

B3: binds [4].

B4: binds [5].

B5: binds [6].

B6: binds [2].

B7: binds [5].

B8: binds [7].

B9: binds [1].

B10: binds [1].

B11: binds [8].

B12: binds [9]; binds [10].

B13: binds [11].

B14: binds [12].
